The experiment can be described thus: [3H]gabapentin binding of C-terminally truncated porcine α2δ-1 subunit mutants expressed in COS-7 cells. The following applies: C-terminal deletions of the δ component, residues of SEQ ID NO:5. How it is done: All media contained 50 units/ml penicillin and 50 microgramm per ml streptomycin. COS-7 cells were maintained in Dulbecco's modified Eagle's medium+glutamax, 10% fetal bovine serum (gamma irradiated) in a 37° C./5% CO2 incubator and passaged by trypsinization. For transient expression experiments, 150-mm culture dishes were seeded with […] and incubated for 16 h. Cells were then washed twice with 30 ml of optiMEM-1 and transfected (t=0 h) with 30 microgramm of plasmid DNA by lipofectamine-mediated transfection in 21 ml of optiMEM-1. At t=6 h, a further 21 ml of optiMEM-1 was added. At t=24 h, the medium was replaced with 42 ml of optiMEM-1. At t=48 h, the cells were washed twice with 30 ml of phosphate-buffered saline and then harvested in 3 ml of buffer A ([…], 1 mM EGTA, 20% glycerol, 10 mm HEPES, pH 7.4, at 4° C.) plus 0.1 mM phenymethylsulfonyl fluoride using a cell scraper.
All subsequent operations were performed at 4° C. The cells were rotated on a Spiramix (Denley Instruments) for 30 min, centrifuged at 20,000×g for 5 min, resuspended in 1 ml of buffer A, recentrifuged at 20,000×g for 5 min, and finally resuspended in 400 microliter of buffer A. Membrane preparations were stored at −70° C. until required.
Protein concentrations were determined by the method of Bradford using bovine serum albumin as a standard. [^3H]Gabapentin binding assays were performed as described previously. For saturation analysis, incubations were performed in duplicate. All other incubations were performed in triplicate. SDS-polyacrylamide gel electrophoresis and Western blotting were performed using the Novex gel and buffer system (Novex Europe, Frankfurt, Germany). Molecular weights were determined by reference to Kaleidoscope markers (Bio-Rad). Detection was performed using the ECL system (Amersham).

B1: mutant extending to residue 1018: C-terminally truncated porcine α2δ-1 subunit, residues 1019 to 1091 deleted (protein, listed as Sus scrofa)
chain: MAAGCLLALTLTLFQSLLIGPSSQEPFPSAVTIKSWVDKMQEDLVTLAKTASGVNQLVDIYEKYQDLYTVEPNNARQLVEIAARDIEKLLSNRSKALVRLALEAEKVQAAHQWREDFASNEVVYYNAKDDLDPEKNDSEPGSQRIKPVFIDDANFGRQISYQHAAVHIPTDIYEGSTIVLNELNWTSALDEVFKKNREEDPSLLWQVFGSATGLARYYPASPWVDNSRTPNKIDLYDVRRRPWYIQGAASPKDMLILVDVSGSVSGLTLKLIRTSVSEMLETLSDDDFVNVASFNSNAQDVSCFQHLVQANVRNKKVLKDAVNNITAKGITDYKKGFSFAFEQLLNYNVSRANCNKIIMLFTDGGEERAQEIFAKYNKDKKVRVFTFSVGQHNYDRGPIQWMACENKGYYYEIPSIGAIRINTQEYLDVLGRPMVLAGDKAKQVQWTNVYLDALELGLVITGTLPVFNITGQNENKTNLKNQLILGVMGVDVSLEDIKRLTPRFTLCPNGYYFAIDPNGYVLLHPNLQPKNPKSQEPVTLDFLDAELENDIKVEIRNKMIDGESGEKTFRTLVKSQDERYIDKGNRTYTWTPVNGTDYSLALVLPTYSFYYIKAKIEETITQARSKKGKMKDSETLKPDNFEESGYTFIAPRDYCNDLKISDNNTEFLLNFNEFIDRKTPNNPSCNTDLINRVLLDAGFTNELVQNYWSKQKNIKGVKARFVVTDGGITRVYPKEAGENWQENPETYEDSFYKRSLDNDNYVFTAPYFNKSGPGAYESGIMVSKAVEIYIQGKLLKPAVVGIKIDVNSWIENFTKTSIRDPCAGPVCDCKRNSDVMDCVILDDGGFLLMANHDDYTNQIGRFFGEIDPSLMRHLVNISVYAFNKSYDYQSVCEPGAAPKQGAGHRSAYVPSIADILHIGWWATAAAWSILQQFLLSLTFPRLLEAVEMEDDDFTASLSKQSCITEQTQYFFDNDSKSFSGVLDCGNCSRIFHVEKLMNTNLIFIMVESKGTCPCDTRL
As to B1, the “[^3H]gabapentin binding” value is reported as “exhibit gabapentin binding activity”.

B2: mutant extending to residue 1063: C-terminally truncated porcine α2δ-1 subunit, residues 1064 to 1091 deleted (protein, listed as Sus scrofa)
chain: MAAGCLLALTLTLFQSLLIGPSSQEPFPSAVTIKSWVDKMQEDLVTLAKTASGVNQLVDIYEKYQDLYTVEPNNARQLVEIAARDIEKLLSNRSKALVRLALEAEKVQAAHQWREDFASNEVVYYNAKDDLDPEKNDSEPGSQRIKPVFIDDANFGRQISYQHAAVHIPTDIYEGSTIVLNELNWTSALDEVFKKNREEDPSLLWQVFGSATGLARYYPASPWVDNSRTPNKIDLYDVRRRPWYIQGAASPKDMLILVDVSGSVSGLTLKLIRTSVSEMLETLSDDDFVNVASFNSNAQDVSCFQHLVQANVRNKKVLKDAVNNITAKGITDYKKGFSFAFEQLLNYNVSRANCNKIIMLFTDGGEERAQEIFAKYNKDKKVRVFTFSVGQHNYDRGPIQWMACENKGYYYEIPSIGAIRINTQEYLDVLGRPMVLAGDKAKQVQWTNVYLDALELGLVITGTLPVFNITGQNENKTNLKNQLILGVMGVDVSLEDIKRLTPRFTLCPNGYYFAIDPNGYVLLHPNLQPKNPKSQEPVTLDFLDAELENDIKVEIRNKMIDGESGEKTFRTLVKSQDERYIDKGNRTYTWTPVNGTDYSLALVLPTYSFYYIKAKIEETITQARSKKGKMKDSETLKPDNFEESGYTFIAPRDYCNDLKISDNNTEFLLNFNEFIDRKTPNNPSCNTDLINRVLLDAGFTNELVQNYWSKQKNIKGVKARFVVTDGGITRVYPKEAGENWQENPETYEDSFYKRSLDNDNYVFTAPYFNKSGPGAYESGIMVSKAVEIYIQGKLLKPAVVGIKIDVNSWIENFTKTSIRDPCAGPVCDCKRNSDVMDCVILDDGGFLLMANHDDYTNQIGRFFGEIDPSLMRHLVNISVYAFNKSYDYQSVCEPGAAPKQGAGHRSAYVPSIADILHIGWWATAAAWSILQQFLLSLTFPRLLEAVEMEDDDFTASLSKQSCITEQTQYFFDNDSKSFSGVLDCGNCSRIFHVEKLMNTNLIFIMVESKGTCPCDTRLLIQAEQTSDGPDPCDMVKQPRYRKGPDVCFDNNALEDYTDCGGVS
With B2, the “[^3H]gabapentin binding” value is “exhibit gabapentin binding activity”.

B3: mutant extending to residue 1036: C-terminally truncated porcine α2δ-1 subunit, residues 1037 to 1091 deleted (protein, listed as Sus scrofa)
chain: MAAGCLLALTLTLFQSLLIGPSSQEPFPSAVTIKSWVDKMQEDLVTLAKTASGVNQLVDIYEKYQDLYTVEPNNARQLVEIAARDIEKLLSNRSKALVRLALEAEKVQAAHQWREDFASNEVVYYNAKDDLDPEKNDSEPGSQRIKPVFIDDANFGRQISYQHAAVHIPTDIYEGSTIVLNELNWTSALDEVFKKNREEDPSLLWQVFGSATGLARYYPASPWVDNSRTPNKIDLYDVRRRPWYIQGAASPKDMLILVDVSGSVSGLTLKLIRTSVSEMLETLSDDDFVNVASFNSNAQDVSCFQHLVQANVRNKKVLKDAVNNITAKGITDYKKGFSFAFEQLLNYNVSRANCNKIIMLFTDGGEERAQEIFAKYNKDKKVRVFTFSVGQHNYDRGPIQWMACENKGYYYEIPSIGAIRINTQEYLDVLGRPMVLAGDKAKQVQWTNVYLDALELGLVITGTLPVFNITGQNENKTNLKNQLILGVMGVDVSLEDIKRLTPRFTLCPNGYYFAIDPNGYVLLHPNLQPKNPKSQEPVTLDFLDAELENDIKVEIRNKMIDGESGEKTFRTLVKSQDERYIDKGNRTYTWTPVNGTDYSLALVLPTYSFYYIKAKIEETITQARSKKGKMKDSETLKPDNFEESGYTFIAPRDYCNDLKISDNNTEFLLNFNEFIDRKTPNNPSCNTDLINRVLLDAGFTNELVQNYWSKQKNIKGVKARFVVTDGGITRVYPKEAGENWQENPETYEDSFYKRSLDNDNYVFTAPYFNKSGPGAYESGIMVSKAVEIYIQGKLLKPAVVGIKIDVNSWIENFTKTSIRDPCAGPVCDCKRNSDVMDCVILDDGGFLLMANHDDYTNQIGRFFGEIDPSLMRHLVNISVYAFNKSYDYQSVCEPGAAPKQGAGHRSAYVPSIADILHIGWWATAAAWSILQQFLLSLTFPRLLEAVEMEDDDFTASLSKQSCITEQTQYFFDNDSKSFSGVLDCGNCSRIFHVEKLMNTNLIFIMVESKGTCPCDTRLLIQAEQTSDGPDPCDMVK
As to B3, the “[^3H]gabapentin binding” value is recorded as “exhibit gabapentin binding activity”.

The values above are taken from patent publication US6962973B1, “Porcine α2δ-1 calcium channel subunit cDNA and soluble secreted α2δ-1 subunit polypeptides” (Warner-Lambert Company, priority 1999, dated 2005).
